Laboratory results from the Human Domainome abundance scans (Beltran et al. 2025).
± gives the uncertainty stated by the source.

B1: Metastasis-associated protein MTA3, residues 265 to 317; numbered along this chain, Q9BTC8 (parent)
chain: RDEMEEWSASEASLFEEALEKYGKDFNDIRQDFLPWKSLTSIIEYYYMWKTTD

Variants of: B1
Assay: abundance fitness (aPCA) (normalised: wild type 0, dead -1); higher = more abundant; growth selection in yeast, the domain comes from the species named
Settings: Homo sapiens

Row | Variant | abundance fitness
1 | RDEMEEWSASEASLFEEALEKYGKDFNDIRQDFLPWKSLTSIINYYYMWKTTD [E44N] | 0.177 ± 0.18
2 | RDEMEEWSASEASLFEEALEKYGKDFNDIRQDFLPWKSLTSIIYYYYMWKTTD [E44Y] | -0.834 ± 0.15
3 | RDEMEEWSASEASLFEEALEKYGKDFNDIRQDFLPWKSLTSIILYYYMWKTTD [E44L] | -0.694 ± 0.092
4 | RDEMEEWSASEASLFEEALEKYGKDFNDIRQDFLPWKSLTSIIIYYYMWKTTD [E44I] | -0.779 ± 0.15
5 | RDEMEEWSASEASLFEEALEKYGKDFNDIRQDFLPWKSLTSIIMYYYMWKTTD [E44M] | -0.961 ± 0.38
6 | RDEMEEWSASEASLFEEALEKYGKDFNDIRQDFLPWKSLTSIIVYYYMWKTTD [E44V] | -0.758 ± 0.18
7 | RDEMEEWSASEASLFEEALEKYGKDFNDIRQDFLPWKSLTSIIPYYYMWKTTD [E44P] | -0.922 ± 0.098
8 | RDEMEEWSASEASLFEEALEKYGKDFNDIRQDFLPWKSLTSIIKYYYMWKTTD [E44K] | -0.246 ± 0.13
9 | RDEMEEWSASEASLFEEALEKYGKDFNDIRQDFLPWKSLTSIITYYYMWKTTD [E44T] | -0.443 ± 0.081
10 | RDEMEEWSASEASLFEEALEKYGKDFNDIRQDFLPWKSLTSIIWYYYMWKTTD [E44W] | -1.05 ± 0.5
11 | RDEMEEWSASEASLFEEALEKYGKDFNDIRQDFLPWKSLTSIIRYYYMWKTTD [E44R] | 0.079 ± 0.094
12 | RDEMEEWSASEASLFEEALEKYGKDFNDIRQDFLPWKSLTSIIEYYYVWKTTD [M48V] | -0.212 ± 0.084
13 | RDEMEEWSASEASLFEEALEKYGKDFNDIRQDFLPWKSLTSIIEYYYWWKTTD [M48W] | -0.256 ± 0.12
14 | RDEMEEWSASEASLFEEALEKYGKDFNDIRQDFLPWKSLTSIIEYYYRWKTTD [M48R] | 0.323 ± 0.068
15 | RDEMEEWSASEASLFEEALEKYGKDFNDIRQDFLPWKSLTSIIEYYYGWKTTD [M48G] | -0.257 ± 0.14
16 | RDEMEEWSASEASLFEEALEKYGKDFNDIRQDFLPWKSLTSIIEYYYKWKTTD [M48K] | 0.128 ± 0.26
17 | RDEMEEWSASEASLFEEALEKYGKDFNDIRQDFLPWKSLTSIIEYYYPWKTTD [M48P] | -0.817 ± 0.13
18 | RDEMEEWSASEASLFEEALEKYGKDFNDIRQDFLPWKSLTSIIEYYYSWKTTD [M48S] | -0.04 ± 0.14
19 | RDEMEEWSASEASLFEEALEKYGKDFNDIRQDFLPWKSLTSIIEYYYFWKTTD [M48F] | 0.204 ± 0.33
20 | RDEMEEWSASEASLFEEALEKYGKDFNDIRQDFLPWKSLTSIIEYYYNWKTTD [M48N] | -0.144 ± 0.27
21 | RDEMEEWSASEASLFEEALEKYGKDFNDIRQDFLPWKSLTSIIEYYYLWKTTD [M48L] | -0.176 ± 0.15
22 | RDEMEEWSASEASLFEEALEKYGKDFNDIRQDFLPWKSLTSIIEYYYAWKTTD [M48A] | -0.006 ± 0.091
23 | RDEMEEWSASEASLFEEALEKYGKDFNDIRQDFLPWKSLTSIIEYYYDWKTTD [M48D] | -0.619 ± 0.35
24 | RDEMEEWSASEASLFEEALEKYGKDFNDIRQDFLPWKSLTSIIEYYYQWKTTD [M48Q] | 0.133 ± 0.086
25 | RDEMEEWSASEASLFEEALEKYGKDFNDIRQDFLPWKSLTSIIEYYYEWKTTD [M48E] | -0.207 ± 0.28

Row | Variant | abundance fitness
26 | RDEMEEWSASEASLFEEALEKYGKDFNDIRQDFLPWKSLTSIIEYYYCWKTTD [M48C] | -0.086 ± 0.075
27 | RDEMEEWSASEASLFEEALEKYGKDFNDIRQDFLPWKSLTSIIEYYYTWKTTD [M48T] | -0.103 ± 0.21
28 | RDEMEEWSASEASLFEEALEKYGKDFNDIRQDFLPWKSLTSIIEPYYMWKTTD [Y45P] | -0.726 ± 0.28
29 | RDEMEEWSASEASLFEEALEKYGKDFNDIRQDFLPWKSLTSIIEMYYMWKTTD [Y45M] | -0.872 ± 0.18
30 | RDEMEEWSASEASLFEEALEKYGKDFNDIRQDFLPWKSLTSIIESYYMWKTTD [Y45S] | -0.561 ± 0.35
31 | RDEMEEWSASEASLFEEALEKYGKDFNDIRQDFLPWKSLTSIIERYYMWKTTD [Y45R] | -0.174 ± 0.19
32 | RDEMEEWSASEASLFEEALEKYGKDFNDIRQDFLPWKSLTSIIEEYYMWKTTD [Y45E] | -0.77 ± 0.21
33 | RDEMEEWSASEASLFEEALEKYGKDFNDIRQDFLPWKSLTSIIETYYMWKTTD [Y45T] | -0.41 ± 0.42
34 | RDEMEEWSASEASLFEEALEKYGKDFNDIRQDFLPWKSLTSIIEWYYMWKTTD [Y45W] | -0.546 ± 0.39
35 | RDEMEEWSASEASLFEEALEKYGKDFNDIRQDFLPWKSLTSIIEQYYMWKTTD [Y45Q] | -0.566 ± 0.16
36 | RDEMEEWSASEASLFEEALEKYGKDFNDIRQDFLPWKSLTSIIEGYYMWKTTD [Y45G] | -0.98 ± 0.33
37 | RDEMEEWSASEASLFEEALEKYGKDFNDIRQDFLPWKSLTSIIEVYYMWKTTD [Y45V] | -1.01 ± 0.32
38 | RDEMEEWSASEASLFEEALEKYGKDFNDIRQDFLPWKSLTSIIEYLYMWKTTD [Y46L] | -0.851 ± 0.39
39 | RDEMEEWSASEASLFEEALEKYGKDFNDIRQDFLPWKSLTSIIEYCYMWKTTD [Y46C] | -0.976 ± 0.28
40 | RDEMEEWSASEASLFEEALEKYGKDFNDIRQDFLPWKSLTSIIEYNYMWKTTD [Y46N] | -0.907 ± 0.31
41 | RDEMEEWSASEASLFEEALEKYGKDFNDIRQDFLPWKSLTSIIEYSYMWKTTD [Y46S] | -0.457 ± 0.2
42 | RDEMEEWSASEASLFEEALEKYGKDFNDIRQDFLPWKSLTSIIEYMYMWKTTD [Y46M] | -0.99 ± 0.37
43 | RDEMEEWSASEASLFEEALEKYGKDFNDIRQDFLPWKSLTSIIEYEYMWKTTD [Y46E] | -0.531 ± 0.12
44 | RDEMEEWSASEASLFEEALEKYGKDFNDIRQDFLPWKSLTSIIEYWYMWKTTD [Y46W] | -0.62 ± 0.22
45 | RDEMEEWSASEASLFEEALEKYGKDFNDIRQDFLPWKSLTSIIEYAYMWKTTD [Y46A] | -0.824 ± 0.12
46 | RDEMEEWSASEASLFEEALEKYGKDFNDIRQDFLPWKSLTSIIEYHYMWKTTD [Y46H] | -0.176 ± 0.35
47 | RDEMEEWSASEASLFEEALEKYGKDFNDIRQDFLPWKSLTSIIEYPYMWKTTD [Y46P] | -0.598 ± 0.14
48 | RDEMEEWSASEASLFEEALEKYGKDFNDIRQDFLPWKSLTSIIEYVYMWKTTD [Y46V] | -0.98 ± 0.29
49 | RDEMEEWSASEASLFEEALEKYGKDFNDIRQDFLPWKSLTSIIEYGYMWKTTD [Y46G] | -0.422 ± 0.16
50 | RDEMEEWSASEASLFEEALEKYGKDFNDIRQDFLPWKSLTSIIEYKYMWKTTD [Y46K] | -0.791 ± 0.43
